In US20100095387A1, “METHODS AND REAGENTS FOR SCREENING NEW DRUGS AND FOR TREATING ION PUMP ASSOCIATED DISORDERS AND DISEASES” (priority 2005, published 2010):
Entries after “also recorded” stand apart in the source; their conditions may differ.

B1: rC-Agy4z8: soluble 95-kD COOH-terminal fragment of rat agrin, active "neural" isoform (protein)
chain: AATGTTAAMATARATTVSRLPASSVTPRVYPSHTSRPVGRTTAPPTTRRPPTTATNMDRPRTPGHQQPSKSCDSQPCLHGGTCQDQDSGKGFTCSCTAGRGGSVCEKVQPPSMPAFKGHSFLAFPTLRAYHTLRLALEFRALETEGLLLYNGNARGKDFLALALLDGRVQFRFDTGSGPAVLTSLVPVEPGRWHRLELSRHWRQGTLSVDGETPVVGESPSGTDGLNLDTNLYVGGIPEEQVAMVLDRTSVGVGLKGCIRMLDINNQQLELSDWQRAAVQSSGVGECGDHPCLPNPCHGGALCQALEAGMFLCQCPPGRFGPTCADEKSPCQPNPCHGAAPCRVLSSGGAKCECPLGRSGTFCQTVLETAGSRPFLADFNGFSYLELKGLHTFERDLGEKMALEMVFLARGPSGLLLYNGQKTDGKGDFVSLALHNRHLEFCYDLGKGAAVIRSKEPIALGTWVRVFLERNGRKGALQVGDGPRVLGESPKSRKVPHTMLNLKEPLYIGGAPDFSKLARGAAVSSGFSGVIQLVSLRGHQLLTQEHVLRAVDVSPFADHPCTQALGNPCLNGGSCVPREATYECLCPGGFSGLHCEKGLVEKSVGDLETLAFDGRTYIEYLNAVIESPETLDSRALFSEKALQSNHFELSLRTEATQGLVLWIGKAAERADYMALAIVDGHLQLSYDLGSQPVVLRSTVKVNTNRWLRIRAHREHREGSLQVGNEAPVTGSSPLGATQLDTDGALWLGGLQKLPVGQALPKAYGTGFVGCLRDVVVGHRQLHLLEDAVTKPELRPCPTP
B2: C-Ag20z8: C-Ag20 isoform having the z8 splice variant, SEQ. ID NO. 2 (protein)
chain: MDPRTYIEYLNAVTESELTNEIPAEKALQSNHFELTLRTEATQGWLVLWIGKAAERADYMALAIVDGHLQLSYDLASQPVVLRSTVKVNTNRWLRVRAHREHREGSLQVGNEAPVTSSSPLGATQLDTDGALWLGGLQKLPVGQPLPKAYGTGFVGCLRNVVGHRQLHLLEDAVTKPELRPCPTLNSKLGPEQKLISEEDLNSAVDHHHHHH
modifications: Synthetically produced sequence
B3: C-Ag20z0: C-Ag20 isoform having the z0 splice variant, SEQ. ID NO. 1 (protein)
chain: MDPRTYIEYLNAVTESEKALQSNHFELTLRTEATQGWLVLWIGKAAERADYMALAIVDGHLQLSYDLASQPVVLRSTVKVNTNRWLRVRAHREHREGSLQVGNEAPVTSSSPLGATQLDTDGALWLGGLQKLPVGQPLPKAYGTGFVGCLRNVVGHRQLHLLEDAVTKPELRPCPTLNSKLGPEQKLISEEDLNSAVDHHHHHH
modifications: Synthetically produced sequence

Columns and labels:
agrin receptors = agrin receptors (Mus musculus, UniProt Q6PIC6); assay: Agrin receptor immunohistochemistry, binding of short agrin fragments to live cortical neurons
Method: The distribution of agrin receptors was studied using agrin deletion fragments as affinity probes. Neurons, plated on glass coverslips, were washed briefly (1-2 min) in cold PBS containing 10 mM EDTA followed by a second wash in cold PBS alone before incubation for 15 min at 4° C. with 1 pM recombinant mouse agrin in NBM. In some experiments, labeling with mouse agrin was performed in the presence of various concentrations of rat rC-Ag95y4z8 or rC-Agy0z0. Control cultures were treated with vector control protein or an equivalent volume of vehicle in which the recombinant agrin was dissolved. Cells were then washed in cold NBM, fixed for 40 min on ice in 4% PFA in PBS, then washed in PBS and blocked for 1 h in PBSB. Recombinant agrin was detected through the COOH-terminal 6× polyhistidine tag using an anti-his antibody (1:500; Invitrogen). In experiments where cells were double labeled for synaptophysin, the anti-synaptophysin:antiserum (1:400) was also added at this step. Incubations were performed overnight at 4° C. in PBSB, followed by labeling with fluorescein conjugated goat anti-mouse and Texas red labeled anti-rabbit antibodies as described in the previous paragraphs. In some experiments, the amount of mouse agrin bound was estimated by digital photomicrography using the public domain NIH Image program (http://rsb.info.nih.gov/nih-image/).

cardiac myocytes = assay: Spontaneous contraction frequency of cultured cardiac myocytes; type: cell-based, mouse; details: Agrn+/− and Agrn−/− myocytes grown in fragment; listed as C-Ag208
Method: FIG. 17. Cardiac myocyte contraction is agrin dependent. Cardiac myocytes were prepared from hearts of individual embryos produced by heterozygous pairings. The genotype of cultures was determined by PCR analysis of tissue samples from each embryo. Myocytes were maintained in 199 medium containing 10% FCS as described (Mitcheson et al., 1998). At 5 days in culture, the frequency of spontaneous contractions was determined by counting contractions in myocytes from 5 random fields at 300× magnification for 30 seconds. Contraction frequency is dependent on Agrn gene dosage such that Agrn−/−>Agrn+/−>Agrn+/+. Addition of C-Ag208 to the growth medium rescues the Agrn mutant phenotype whereas C-Ag15 increased the contraction frequency of wild type myocytes to a level similar to Agrn−/− cells. Bars show mean±SEM for a minimum of 2 independent platings from 3 embryos, except for Agrn+/−treated with C-Ag208, which was a single plating of 2 embryos. All data were collected blind with respect to genotype and agrin treatment. *** p≦0.001. ANOVA with Bonferroni post-hoc pair-wise comparison.
Quantitative studies confirmed and extended these observations by showing that the frequency of myocyte contraction is dependent on agrin gene dose: Agrn−/− myocyte contraction frequency is about 2-fold higher and Agrn+/− 1.5-fold higher than Agrn+/+ myocytes (FIG. 17). To learn whether the effect of the Agrn mutation on myocyte contraction is a direct result of the loss of agrin expression the effects of growing the cells in media supplemented with C-Ag208, an active agrin fragment, or C-Ag15, the agrin antagonist was next examined.

[1] = target: T1, α3 subunit of the Na+/K+-ATPase (Mus musculus, UniProt Q6PIC6); assay: Chemical cross-linking of agrin fragments to cortical neurons, immunoprecipitation and immunoblot; type: binding; details: immunoprecipitation with phosphotyrosine antibody mAb4G10
T1 construct: a 110 kDa band characteristic of the native α3Na+/K+-ATPase; endogenous in cells; host or cells: primary mouse cortical neurons, 10-16 days in culture
Method: Membrane impermeant chemical cross-linking agents BS^3 and DMA were used to stabilize the bond between agrin and its binding sites on cell surface membranes. Cultured neurons were washed briefly in PBS containing 10 mM EDTA followed by preincubation with one or more agrin fragment in PBS^2+ for 30 minutes at room temperature and then cooled on ice prior to addition of a 10× solution of cross-linking agent to a final concentration of 0.1 mM. The cross-linking reaction was allowed to proceed for 30 minutes after which any unreacted cross-linker was quenched and removed by washing with ice cold PBS^2+ containing 50 mM ethanolamine. For immunoblot analysis, cells were scraped into ice-cold TI buffer (20 mM Tris, pH 7.4; 10 mM EDTA; protease inhibitors (Sigma, P8340)) then Dounce homogenized and membrane fraction recovered by centrifugation. For the immunoprecipitation studies, cells were scraped and homogenized in TI buffer containing 150 mM NaCl and 0.5% Triton X-100. Cell extracts were cleared by centrifugation and aliquots of the detergent soluble fraction incubated with the appropriate antibody at 4° C. overnight. Antigen-antibody complexes were precipitated with either protein A or protein G and resuspended in SDS-PAGE sample buffer for immunoblot analysis.
Ligand induced phosphorylation is a common first step in membrane receptor activation and inhibition of tyrosine kinase activity blocks agrin signalling in central nervous system neurons. To determine if agrin induced phosphorylation of the putative agrin receptor, membranes from neurons cross-linked to C-Ag208 or C-Ag15, alone or in combination, were dissolved, in a detergent-containing buffer and aliquots immunoprecipitated with RAg1 or the phosphotyrosine antibody mAb4G10 (Upstate). Immunoprecipitated proteins were analyzed by immunoblotting with a monoclonal antibody (9E10.2, Invitrogen) against the COON-terminal myc tag on the agrin fragments.
To confirm the results of the mass spectrometry the ability of different α-subunit antibodies to recognize the putative agrin-Na^+/K^+-ATPase complex was tested. […]

α3Na+/K+-ATPase [2] = target: T2, α3Na+/K+-ATPase (Mus musculus, UniProt Q6PIC6); assay: Na+ imaging (SBFI-AM) of cultured cortical cells; type: cell-based
α3Na+/K+-ATPase [3] = target: T2, α3Na+/K+-ATPase; assay: Whole cell current clamp of cultured cortical neurons, channel blockers present; type: cell-based; details: fragment alone
[4] = test system: cultured cortical neurons; assay: Firing properties of cultured cortical neurons in normal external solution; type: cell-based, mouse; details: normal external solution
[5] = test system: layer V neurons in acute cortical slices; assay: Whole cell current clamp of layer V neurons in acute cortical slices; type: cell-based, mouse

Row | Molecule | C-Ag20z8 labeling (agrin receptors; 1:100 molar ratio of C-Ag20z8 to rC-Agy4z8) | binding of C-Ag20z8, C-Ag20z0 and C-Ag15 (agrin receptors; large (500-fold molar) excess of rat agrin) | contraction frequency (cardiac myocytes) | tyrosine phosphorylation of the cross-linked complex [1] | neuronal intracellular Na+ (α3Na+/K+-ATPase [2]; fragment or ouabain alone, neurons) | intracellular Na+ in non-neuronal cells (α3Na+/K+-ATPase [2]; non-neuronal cells) | effect on neuron membrane potential (α3Na+/K+-ATPase [3]) | membrane potential [4] | action potentials ([5]; bath application of fragment alone) | membrane depolarization ([5]; bath application, slices from 6-11 day-old mice)
1 | B1 | barely detectable | completely blocked | – | – | – | – | – | – | – | –
2 | B2 | – | – | significant decrease; also recorded: rescues | phosphorylated | rapid increase | unaffected | rapid and reversible depolarization | – | – | –
3 | B3 | – | – | – | – | – | – | rapid and reversible depolarization | rapidly depolarized | appearance of high frequency action potentials | 9.6±2.22 mV
